From paper PMC4837482, “The complex binding mode of the peptide hormone H2 relaxin to its receptor RXFP1” (Nature Communications, 2016)
Positions count from the first letter of the chain named.

What was measured:
Test in all cases: cAMP activity assay (pCRE β-galactosidase reporter), transfected HEK293T cells
Format in all cases: cell-based
RXFP1 K52A = target: T1, RXFP1 K52A (Homo sapiens, UniProt Q9HBX9, K74A); conditions: construct K52A, ±s.e.m.
T1 construct: cells expressing full-length RXFP1 and mutants; expressed in transfected cells; host or cells: HEK293T
T1 sequence (Q9HBX9 23-757 K74A limits assumed): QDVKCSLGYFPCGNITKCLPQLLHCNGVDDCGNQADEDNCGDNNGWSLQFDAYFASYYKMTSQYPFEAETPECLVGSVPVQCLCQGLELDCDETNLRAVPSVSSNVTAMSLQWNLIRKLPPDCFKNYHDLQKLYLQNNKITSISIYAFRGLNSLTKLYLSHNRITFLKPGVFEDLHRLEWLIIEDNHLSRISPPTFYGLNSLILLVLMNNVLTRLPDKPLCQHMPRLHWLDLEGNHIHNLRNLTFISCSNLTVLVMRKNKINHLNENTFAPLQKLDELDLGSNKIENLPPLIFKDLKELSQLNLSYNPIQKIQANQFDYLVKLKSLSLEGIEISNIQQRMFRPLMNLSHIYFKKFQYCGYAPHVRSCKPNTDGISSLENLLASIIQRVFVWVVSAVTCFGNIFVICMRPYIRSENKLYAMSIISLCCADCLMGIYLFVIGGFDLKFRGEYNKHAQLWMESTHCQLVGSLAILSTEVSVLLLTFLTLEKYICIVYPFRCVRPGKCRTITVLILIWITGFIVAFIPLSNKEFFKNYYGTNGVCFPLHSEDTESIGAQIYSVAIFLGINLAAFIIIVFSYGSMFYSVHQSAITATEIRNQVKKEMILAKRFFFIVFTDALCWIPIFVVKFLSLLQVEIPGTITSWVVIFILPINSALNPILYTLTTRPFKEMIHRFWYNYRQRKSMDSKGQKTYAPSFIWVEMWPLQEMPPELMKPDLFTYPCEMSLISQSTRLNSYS
Outline: (§1)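 H2 relaxin dilutions in minimal media with 1% DMSO; 5 μM Forskolin as positive control, media/1% DMSO as negative. After freezing at −80 °C, cells lysed in pH 8.0 phosphate buffers and chlorophenol red-β-D-galactopyranoside added; absorbance read at 570 nm. Responses given as % of 5 μM Forskolin maximum.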

RXFP1 W46A = target: T2, RXFP1 W46A (Homo sapiens, UniProt Q9HBX9, W68A); conditions: construct W46A, ±s.e.m.
T2 construct: transiently transfected human embryonic kidney (HEK) 293T cells expressing full-length RXFP1 and mutants; expressed in transfected cells; host or cells: HEK293T
T2 sequence (Q9HBX9 23-757 W68A limits assumed): T1 sequence (Q9HBX9 23-757 K74A limits assumed) with W46A, A52K
Outline: as §1

RXFP1 Q49A/F50A = target: T3, RXFP1 Q49A/F50A (Homo sapiens, UniProt Q9HBX9, F72A/Q71A); conditions: construct Q49A/F50A, ±s.e.m.
T3 construct: cells expressing full-length RXFP1 and mutants; expressed in transfected cells; host or cells: HEK293T
T3 sequence (Q9HBX9 23-757 Q71A/F72A limits assumed): T1 sequence (Q9HBX9 23-757 K74A limits assumed) with Q49A, F50A, A52K
Outline: as §1

[1] = percentage of maximum response to 5 μM Forskolin

## H2 relaxin: two-chain 6-kDa peptide hormone structurally related to insulin; recombinant human gene-2 H2 relaxin provided by Corthera
RXFP1 K52A; cAMP reporter
  H2 relaxin pEC50: 11.06±0.11
RXFP1 K52A; [1]
  H2 relaxin Emax: 154.63±33.73 (5) %
RXFP1 W46A; cAMP reporter
  H2 relaxin pEC50: 7.02±0.18 (3)
RXFP1 W46A; [1]
  H2 relaxin Emax: 109.6±13.69 (3) %
RXFP1 Q49A/F50A; cAMP reporter
  H2 relaxin pEC50: 9.17±0.04 (3)
RXFP1 Q49A/F50A; [1]
  H2 relaxin Emax: 98.2±8.8 (3) %
